This note sets out measurements from EP2170953B1.

For test [1], the target named is Aβ1-42 peptide, monomer-enriched preparation. The experiment in a line: ELISA assay 1, Ab 1:64 of 0.5 µg/ml. For orientation: ELISA stands for enzyme-linked immunosorbent assay.
The target of test [2] is Aβ1-42 peptide, oligomer-enriched preparation. Put plainly: ELISA assay 1, Ab 1:64 of 0.5 µg/ml.
Chain of Aβ1-42 peptide, oligomer-enriched preparation (peptide, as listed by the source, form in doubt): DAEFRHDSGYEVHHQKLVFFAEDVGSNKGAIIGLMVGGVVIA

Chain of Aβ1-42 peptide, monomer-enriched preparation (peptide, as listed by the source, form in doubt): as above

In the case of 6E10 control antibody, the O.D. was 0.81 O.D in test [1] and 0.93 O.D in test [2].
